In patent US20200231684A1 (published 2020):
Numbering of substitutions follows the chain as printed.

T1: human IL-36R on cells (human, UniProt Q9HB29 20-575)
T1 sequence (looked up): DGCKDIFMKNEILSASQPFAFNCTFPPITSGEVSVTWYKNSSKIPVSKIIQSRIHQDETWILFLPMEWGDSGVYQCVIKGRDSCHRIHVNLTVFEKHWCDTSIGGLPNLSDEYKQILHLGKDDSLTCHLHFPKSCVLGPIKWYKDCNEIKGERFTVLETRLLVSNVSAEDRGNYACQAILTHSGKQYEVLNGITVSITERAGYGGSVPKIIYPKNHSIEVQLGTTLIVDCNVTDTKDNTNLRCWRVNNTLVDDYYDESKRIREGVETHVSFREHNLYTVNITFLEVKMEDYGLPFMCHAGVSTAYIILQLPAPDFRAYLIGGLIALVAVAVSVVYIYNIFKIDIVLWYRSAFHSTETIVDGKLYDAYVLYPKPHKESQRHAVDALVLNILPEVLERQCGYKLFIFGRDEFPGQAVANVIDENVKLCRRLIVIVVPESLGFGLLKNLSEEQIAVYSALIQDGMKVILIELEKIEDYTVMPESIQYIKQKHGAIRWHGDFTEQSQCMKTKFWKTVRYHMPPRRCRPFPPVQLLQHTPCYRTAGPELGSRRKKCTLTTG

T2: human IL-1R1 (human, UniProt P14778 18-336, limits assumed)
T2 construct: also called IL-1RI
T2 sequence (looked up): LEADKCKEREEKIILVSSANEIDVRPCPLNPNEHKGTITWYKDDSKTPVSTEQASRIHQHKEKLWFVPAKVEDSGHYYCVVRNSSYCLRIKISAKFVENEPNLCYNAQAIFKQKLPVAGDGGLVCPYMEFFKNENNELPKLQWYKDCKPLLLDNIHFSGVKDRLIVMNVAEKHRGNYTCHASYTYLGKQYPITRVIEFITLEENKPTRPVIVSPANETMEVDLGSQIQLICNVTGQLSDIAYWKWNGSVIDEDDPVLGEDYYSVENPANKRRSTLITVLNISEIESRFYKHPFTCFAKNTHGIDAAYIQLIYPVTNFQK

T3: mouse IL-36R (mouse, UniProt Q9ERS7 22-338)
T3 sequence (looked up): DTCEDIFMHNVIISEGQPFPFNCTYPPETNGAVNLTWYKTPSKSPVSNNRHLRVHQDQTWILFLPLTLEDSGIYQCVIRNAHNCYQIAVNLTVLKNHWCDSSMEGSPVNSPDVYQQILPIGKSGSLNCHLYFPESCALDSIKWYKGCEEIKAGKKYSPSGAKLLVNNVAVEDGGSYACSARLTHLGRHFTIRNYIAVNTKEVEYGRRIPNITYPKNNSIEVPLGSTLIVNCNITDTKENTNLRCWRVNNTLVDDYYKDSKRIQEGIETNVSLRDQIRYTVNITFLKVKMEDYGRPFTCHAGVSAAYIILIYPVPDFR

B1: chimeric antibody C81B4 (antibody, V domains shown)
VH: QVQLQQPGADFVRPGASMRLSCKASGYSFTSSWIHWVKQRPGQGLEWIGEINPGNVRTNYNENFRNKATLTVDKSSTTAYMQLRSLTSADSAVYYCTVVFYGEPYFPYWGQGTLVTVSA
VL: QIVLTQSPAIMSASLGERVTMTCTASSSVSSSYFHWYQQKPGSSPKLWIYRTSNLASGVPGRFSGSGSGTSYSLTISSMEAEDAATYYCHQFHRSPLTFGAGTKLELK
notes: Mouse variable domains of 81B4 on human constant domains (hu IgG1KO/kappa); also called chimeric 81B4
B2: chimeric antibody C73C5 (antibody, V domains shown)
VH: QVQLKESGPGLVAPSQSLSITCTVSGFSLTNYAVHWVRQFPGKGLEWLGVIWSDGSTDFNAPFKSRLSINKDNSKSQVFFKMNSLQIDDTAIYYCARKGGYSGSWFAYWGQGTLVTVSA
VL: DIVMTQSQKFLSTSVGVRVSVTCKASQDVGTNVLWYQQKIGQSPKPLIYSASYRHSGVPDRFTGSGSGTDFTLIISNVQSEDLAEYFCQQYSRYPLTFGPGTKLELK
notes: Mouse variable domains of 73C5 on human constant domains (hu IgG1KO/kappa); also called chimeric 73C5
B3: chimeric antibody C81A1 (antibody, V domains shown)
VH: QVQLKESGPGLVAPSQSLFITCTVSGFSLSSYEINWVRQVPGKGLEWLGVIWTGITTNYNSALISRLSISKDNSKSLVFLKMNSLQTDDTAIYYCARGTGTGFYYAMDYWGQGTSVTVSS
VL: DIQMTQTTSSLSASLGDRVTISCRASQDIYKYLNWYQQKPDGTLKLLIYYTSGLHSGVPSRFSGSGSGTDFSLTISNLEPEDIATYFCQQDSKFPWTFGGDTKLEIK
notes: Mouse variable domains of 81A1 on human constant domains (hu IgG1KO/kappa); also called chimeric 81A1
B4: chimeric antibody C33D10 (antibody, V domains shown)
VH: QVQLQQSGTELLKPGASVKLSCKASGNTVTSYWMHWVKQRPGQGLEWIGEILPSTGRTNYNENFKGKAMLTVDKSSSTAYMQLSSLASEDSAVYYCTIVYFGNPWFAYWGQGTLVTVSA
VL: B1 VL with F34L, Q39K, I49V, R51S, G61V, F92H, L97V, A101S, L107M
notes: Mouse variable domains of 33D10 on human constant domains (hu IgG1KO/kappa); also called chimeric 33D10
B5: chimeric antibody of 78C8 (antibody, V domains shown)
VH: QVQLKESGPVLVAPSQSLSITCTVSGFSLTKFGVHWIRQTPGKGLEWLGVIWAGGPTNYNSALMSRLTISKDISQSQVFLRIDSLQTDDTAMYYCAKQIYYSTLVDYWGQGTSVTVSS
VL: DVLLTQTPLSLPVSLGDQASISCRSSQNIVHSNGNTYLQWYLQKPGQSPKLLIYKVSNRFSGVPDRFSGSGSGTDFTLKISRVEAEDLGVYYCFQGSHVPFTFGAGTKLELK
notes: No own label printed; also called chimeric 78C8
B6: chimeric antibody of 172C8 (antibody, V domains shown)
VH: EVQLQQSGPELVKPGASVKLSCKASGYTFTDNYMNWVRQSHGKSLEWIGRVNPSNGDTKYNQNFKGKATLTVDKSLSTAYMQLNGLTSEDSAVYYCGRTKNFYSSYSYDDAMDYWGQGTSVTVSS
VL: DIQMTQSPASQSASLGESVTFTCLASQTIGTWLAWYQQRPGKSPQLLIYAATSLADGVPSRFSGSGSGTQFSFNIRSLQAEDFASYYCQQVYTTPLTFGGGTKLEIK
notes: No own label printed; also called chimeric 172C8
B7: chimeric antibody of 67E7 (antibody, V domains shown)
VH: EVQLQQSGAEFVRPGASVKFSCTASGFNIKDDYIHWVRQRPEQGLEWVGRIDPANGNTKYAPKFQDKATITADTSSNTAYLQLSSLTSEDTAVYYCAKSFPNNYYSYDDAFAYWGQGTLVTVSA
VL: DIQMTQSPASQSASLGESVTFTCLASQTIGTWLGWYQQKPGKSPQLLIYRSTTLADGVPSRFSGSGSGTKFSFKISSLQAADFASYYCQQLYSAPYTFGGGTKLEIR
notes: No own label printed; also called chimeric 67E7
B8: chimeric antibody of 89A12 (antibody, V domains shown)
VH: B7 VH with F11L, K19R, F20L, E42K, V48L, A61D, K63R, Q82H, N102D
VL: B7 VL with T22S, S51A, T53S, K70N, A81E, F83L, A94G
notes: No own label printed; also called chimeric 89A12
B9: chimeric antibody of 76E10 (antibody, V domains shown)
VH: QVQLKESGPVLVAPSQSLSITCTVSGFSLTNYGVHWVRQPPGKGLEWLGVIWPVGSTNYNSALMSRLSIHKDNSKSQVFLRMNSLQTDDTAIYYCAKMDWDDFFDYWGQGTTLTVSS
VL: DIVMTQSQKFMSATVGGRVNITCKASQNVGRAVAWYQQKPGQSPKLLTHSASNRYTGVPDRFTGSGSGTDFTLTITNMQSEDLADYFCQQYSSYPLTFGAGTKLDLK
notes: No own label printed; also called chimeric 76E10
B10: chimeric antibody of 73F6 (antibody, V domains shown)
VH: B2 VH with F59Y, I87T
VL: B2 VL with P46A, S76T
notes: No own label printed; also called chimeric 73F6

These binders were tested against T1, human IL-36R on cells (assay: cell-based or functional assay).

Binder	IC90, IL-8 release, human primary keratinocytes (NHK), trun-IL-36a	IC90, IL-8 release, human primary keratinocytes (NHK), trun-IL-36b	IC90, IL-8 release, human primary keratinocytes (NHK), trun-IL-36g	IC90, pNFκB, human primary keratinocytes (NHK), trun-IL-36b
B1	1200 pM	11100 pM	300 pM	1.8 nM
B2	29700 pM	49300 pM	3600 pM	8.3 nM
B3	23400 pM	87000 pM	1200 pM	7.1 nM

Each binder was assayed against T2, human IL-1R1 (assay: BLI (Fortebio Octet), antibody injected over antigen surface).
Procedure: (§1) B) Molecular selectivity over mouse IL-36R and human IL-1R1 The mouse and chimeric anti-IL-36R antibodies were also injected over either a mouse IL-36R or a human IL-1R1 surface at a concentration of 100 nM. The binding signal to mouse IL-36R and to human IL-1R1 for these antibodies measured using the Fortebio Octet (Fortebio, Menlo Park, Calif.) is zero, which indicates these antibodies selectively bind to human IL-36R.

Binder	binding result
B4	no binding (tested: 100 nM)
B1	no binding (tested: 100 nM)
B5	no binding (tested: 100 nM)
B6	no binding (tested: 100 nM)
B7	no binding (tested: 100 nM)
B8	no binding (tested: 100 nM)
B9	no binding (tested: 100 nM)
B2	no binding (tested: 100 nM)
B10	no binding (tested: 100 nM)
B3	no binding (tested: 100 nM)

These binders were tested against T3, mouse IL-36R in the same assay as above.
Procedure: as §1

Binder	binding result
B4	no binding (tested: 100 nM)
B1	no binding (tested: 100 nM)
B5	no binding (tested: 100 nM)
B6	no binding (tested: 100 nM)
B7	no binding (tested: 100 nM)
B8	no binding (tested: 100 nM)
B9	no binding (tested: 100 nM)
B2	no binding (tested: 100 nM)
B10	no binding (tested: 100 nM)
B3	no binding (tested: 100 nM)

Target: T1, human IL-36R on cells
Test: cell-based or functional assay
Remark: another data set of the same source

Binder	IC90, IL-8 release, NCI/ADR-RES cells, trun-IL-36a	IC90, IL-8 release, NCI/ADR-RES cells, trun-IL-36b	IC90, IL-8 release, NCI/ADR-RES cells, trun-IL-36g	IC90, pNFκB, NCI/ADR-RES cells, trun-IL-36a	IC90, pNFκB, NCI/ADR-RES cells, trun-IL-36b	IC90, pNFκB, NCI/ADR-RES cells, trun-IL-36g
B4	400 pM	300 pM	200 pM	1.9 nM	2 nM	1.3 nM
B1	400 pM	100 pM	100 pM	1.3 nM	0.9 nM	0.4 nM
B2	700 pM	400 pM	400 pM	2.1 nM	0.9 nM	1.8 nM
